Measurements from patent publication US20200071711, “MODULAR CONSTRUCTION OF SYNTHETIC GENE CIRCUITS IN MAMMALIAN CELLS USING MATHEMATICAL MODELING OF CLOSED LOOP TRANSCRIPTIONAL REPRESSORS” (Tsinghua University, published 2020).

Biological target: T1, TALER14 (synthetic, UniProt Q56830 SEQ:262-1310)
T1 chain: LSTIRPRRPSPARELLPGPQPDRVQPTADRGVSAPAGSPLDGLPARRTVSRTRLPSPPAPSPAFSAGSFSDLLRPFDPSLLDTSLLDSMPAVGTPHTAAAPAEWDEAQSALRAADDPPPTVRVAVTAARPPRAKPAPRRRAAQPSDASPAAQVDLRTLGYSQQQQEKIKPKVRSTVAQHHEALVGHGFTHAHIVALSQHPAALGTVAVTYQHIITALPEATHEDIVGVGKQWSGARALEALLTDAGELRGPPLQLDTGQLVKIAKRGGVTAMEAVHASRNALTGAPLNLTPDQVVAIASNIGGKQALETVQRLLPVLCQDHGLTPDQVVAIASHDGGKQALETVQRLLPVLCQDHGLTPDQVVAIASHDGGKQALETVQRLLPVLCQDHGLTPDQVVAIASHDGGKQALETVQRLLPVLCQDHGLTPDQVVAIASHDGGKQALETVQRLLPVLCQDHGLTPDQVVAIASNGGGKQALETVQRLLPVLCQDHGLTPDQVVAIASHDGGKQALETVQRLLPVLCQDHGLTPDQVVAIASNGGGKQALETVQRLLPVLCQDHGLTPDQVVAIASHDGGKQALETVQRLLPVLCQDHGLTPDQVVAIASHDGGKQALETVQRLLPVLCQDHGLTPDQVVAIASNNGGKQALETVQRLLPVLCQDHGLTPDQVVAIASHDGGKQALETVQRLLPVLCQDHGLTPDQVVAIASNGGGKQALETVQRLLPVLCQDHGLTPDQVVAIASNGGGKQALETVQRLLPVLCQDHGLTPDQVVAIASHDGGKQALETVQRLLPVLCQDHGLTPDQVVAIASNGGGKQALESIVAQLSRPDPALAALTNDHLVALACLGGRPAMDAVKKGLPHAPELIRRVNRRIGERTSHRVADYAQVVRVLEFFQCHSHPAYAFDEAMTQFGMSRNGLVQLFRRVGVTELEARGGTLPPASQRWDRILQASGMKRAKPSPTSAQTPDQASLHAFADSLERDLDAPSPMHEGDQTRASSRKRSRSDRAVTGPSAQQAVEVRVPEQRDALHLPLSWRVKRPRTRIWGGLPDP
Assay: cell_activity; HEK293, two sites flanking CMVmini
Settings: tags: EYFP-2A upstream, SV40 NLS

B1: T14 site (dsDNA)
DNA 1: TACCCCTCTCCGCTTCT
DNA 2: AGAAGCGGAGAGGGGTA
  binding signal: 1440 fold repression
